Experimental findings from patent US20160061839A1 (LABORATORY CORPORATION OF AMERICA, published 2016) are described below.

Experiment [1] addresses T1, Her-2 (human, UniProt P04626 23-1255).
T1 construct: whole, on cells; also called ErbB2; c-Erb-B2
Briefly: IHC on FFPE SKOV3 cells (high HER2, low HER3).

Experiment [2] concerns the target T2, Her-3 (human, UniProt P21860 20-1342).
T2 construct: whole, on cells; In the IHC and VERATAG assays the protein stood in formalin-fixed, paraffin-embedded cells or tumor sections; also called ErbB3; c-erb-B3
Briefly: IHC on FFPE 293H3-clone 1 cells over-expressing HER3.

T2 sequence (P21860 20-1342): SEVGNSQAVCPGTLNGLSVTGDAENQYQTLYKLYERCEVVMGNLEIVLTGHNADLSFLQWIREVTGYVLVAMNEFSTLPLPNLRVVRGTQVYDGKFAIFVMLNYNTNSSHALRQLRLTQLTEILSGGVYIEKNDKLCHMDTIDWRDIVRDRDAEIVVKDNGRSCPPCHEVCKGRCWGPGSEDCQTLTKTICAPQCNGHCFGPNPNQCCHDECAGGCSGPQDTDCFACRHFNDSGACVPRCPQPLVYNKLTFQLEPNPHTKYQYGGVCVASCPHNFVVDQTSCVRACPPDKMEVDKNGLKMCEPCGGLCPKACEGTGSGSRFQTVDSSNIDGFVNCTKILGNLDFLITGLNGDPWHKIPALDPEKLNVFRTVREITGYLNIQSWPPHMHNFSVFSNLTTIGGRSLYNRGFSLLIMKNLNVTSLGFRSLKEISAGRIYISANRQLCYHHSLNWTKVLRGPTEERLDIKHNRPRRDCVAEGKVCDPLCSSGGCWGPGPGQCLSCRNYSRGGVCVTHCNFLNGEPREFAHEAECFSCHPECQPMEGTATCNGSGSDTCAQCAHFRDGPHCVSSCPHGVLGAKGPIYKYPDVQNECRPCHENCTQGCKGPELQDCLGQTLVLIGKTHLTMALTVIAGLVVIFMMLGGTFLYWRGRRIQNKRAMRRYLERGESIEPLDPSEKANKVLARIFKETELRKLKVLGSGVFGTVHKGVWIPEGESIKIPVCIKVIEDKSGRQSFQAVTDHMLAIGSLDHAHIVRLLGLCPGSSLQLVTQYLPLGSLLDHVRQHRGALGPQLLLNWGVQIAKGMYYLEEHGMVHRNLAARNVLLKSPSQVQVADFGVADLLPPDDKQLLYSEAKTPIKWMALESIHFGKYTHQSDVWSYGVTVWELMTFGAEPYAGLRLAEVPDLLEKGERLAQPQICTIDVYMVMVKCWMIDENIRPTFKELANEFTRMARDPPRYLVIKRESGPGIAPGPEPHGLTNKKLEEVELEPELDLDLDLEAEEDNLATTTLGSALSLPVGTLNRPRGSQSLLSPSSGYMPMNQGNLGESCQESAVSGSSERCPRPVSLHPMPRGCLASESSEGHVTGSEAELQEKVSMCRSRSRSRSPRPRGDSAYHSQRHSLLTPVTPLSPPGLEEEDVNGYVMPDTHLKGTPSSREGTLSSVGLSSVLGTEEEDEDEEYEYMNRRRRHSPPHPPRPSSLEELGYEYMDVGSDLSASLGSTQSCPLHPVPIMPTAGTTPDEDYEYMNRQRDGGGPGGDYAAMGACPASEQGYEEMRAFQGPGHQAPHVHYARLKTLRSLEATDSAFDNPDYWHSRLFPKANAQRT

B1: Her3.B9A11.H1 (antibody, V domains shown)
VH: EVQLQQPGTVLARPGASVRMSCKASGYTFTSYWMHWVKQRPGQGLEWIGAIYPGNSDTRDNQKFKGKAELTAVTSASTAYMELSSLTNEDSAVYYCTSYYFDGAGYFDFWGQGTTLTVSS
VL: DIVMSQSPSSLAVSAGEKVTLSCKSSQSLLNSRTRKNYLAWYQQKPGQSPKLLIYWASTRESGVPDRFTGSGSGTDFTLTVSSVQAEDLAVYYCKQSYNLWTFGGGTKLEIK
notes: Mouse hybridoma monoclonal antibody; The matched isotype control is IgG1; also called B9A11-biotin
B1: the binding result in experiment [1] was “no binding”; in experiment [2] it was “binds”.
